US20060240023A1 (Takeda / Millennium, published 2006)

Target: T1, ASK1-KR (human ASK1 with lysine 709 at the ATP-binding site replaced with arginine) (human, UniProt Q99683 1-1374)
T1 construct: Bait in the yeast two-hybrid screen (Brent's system); also called bait
T1 sequence (looked up): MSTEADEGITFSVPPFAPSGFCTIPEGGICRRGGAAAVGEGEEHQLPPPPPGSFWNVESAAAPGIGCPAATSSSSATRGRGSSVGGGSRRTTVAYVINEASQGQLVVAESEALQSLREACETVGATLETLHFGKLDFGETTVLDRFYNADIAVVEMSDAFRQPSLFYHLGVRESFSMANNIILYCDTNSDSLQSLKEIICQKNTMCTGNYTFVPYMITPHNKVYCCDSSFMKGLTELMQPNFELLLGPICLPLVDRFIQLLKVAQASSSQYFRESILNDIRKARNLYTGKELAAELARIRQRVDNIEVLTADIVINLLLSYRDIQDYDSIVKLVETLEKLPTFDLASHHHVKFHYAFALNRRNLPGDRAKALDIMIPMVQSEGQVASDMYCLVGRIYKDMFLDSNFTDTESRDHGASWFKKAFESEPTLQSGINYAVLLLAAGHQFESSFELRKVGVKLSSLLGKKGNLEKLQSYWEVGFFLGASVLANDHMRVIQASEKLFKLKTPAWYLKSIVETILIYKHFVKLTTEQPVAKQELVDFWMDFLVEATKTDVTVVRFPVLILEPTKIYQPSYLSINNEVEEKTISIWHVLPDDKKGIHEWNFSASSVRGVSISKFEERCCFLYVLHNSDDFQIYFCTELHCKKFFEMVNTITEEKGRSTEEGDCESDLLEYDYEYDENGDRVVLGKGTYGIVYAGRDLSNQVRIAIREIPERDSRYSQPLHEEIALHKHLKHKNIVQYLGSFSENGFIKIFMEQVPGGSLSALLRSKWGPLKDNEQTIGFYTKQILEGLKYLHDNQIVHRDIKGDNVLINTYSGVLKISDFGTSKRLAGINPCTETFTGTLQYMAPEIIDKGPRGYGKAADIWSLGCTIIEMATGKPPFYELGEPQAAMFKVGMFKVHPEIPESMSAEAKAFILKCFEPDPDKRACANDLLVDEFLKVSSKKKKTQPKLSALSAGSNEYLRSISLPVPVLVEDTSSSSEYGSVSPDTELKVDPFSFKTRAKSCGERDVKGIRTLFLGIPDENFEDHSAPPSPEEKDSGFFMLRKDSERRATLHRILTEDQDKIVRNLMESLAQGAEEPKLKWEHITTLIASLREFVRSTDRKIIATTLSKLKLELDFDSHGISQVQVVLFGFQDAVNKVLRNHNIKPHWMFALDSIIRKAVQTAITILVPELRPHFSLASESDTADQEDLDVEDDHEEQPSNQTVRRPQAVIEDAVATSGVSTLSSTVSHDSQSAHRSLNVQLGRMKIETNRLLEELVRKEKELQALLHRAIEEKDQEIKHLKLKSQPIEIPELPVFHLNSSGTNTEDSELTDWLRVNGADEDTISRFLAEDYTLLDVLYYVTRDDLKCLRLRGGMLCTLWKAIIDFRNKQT
Test: yeast two-hybrid (Brent's system), ASK1-KR as bait, fetal human brain expression library as prey; positive clone
Experimental: To identify the ASK1-binding protein, screening was conducted by the yeast two-hybrid method using Brent's system [Zervos et al., Cell, Vol. 72, p. 223-232, 1993; Gyuris et al., Cell, Vol. 75, p. 791-803, 1993] with ASK1-KR, prepared by replacing lysine (K) at the ATP-binding site (position 709) in the kinase domain of human ASK1 with arginine (R), as a bait and an expression library of fetal human brain origin as a prey. As a result, about 1200 positive clones were obtained. Database search of one of them based on its base sequence identified it as a portion of the protein coding region of the gene designated as “PGR1” (a portion corresponding to amino acid positions 35 to 127). […] Since this protein was identified as an ASK1-binding protein, it was designated as ASK1 binding protein 1 (ABP1).

binding result: binds
B1: ABP1 (PGR1) fragment, amino acid positions 35 to 127, positive clone of the two-hybrid screen (other)
chain: MREDIASLTREHGRAYLRNRSKLWEMDNMLIQIKTQVEASEESALNHLQNPGDAAEGRAAKRCEKAEEKAKEIAKMAEMLVELVRRIEKSESS
notes: Prey from an expression library of fetal human brain origin; also called PGR1 (a portion corresponding to amino acid positions 35 to 127); prey clone
